In the nanobody polyreactivity screen of Harvey et al. (2022):

Assay: yeast display, Sf9 membrane polyspecificity reagent, FACS + sequencing; frameworks hold sequencing errors
How it was run: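 After 36–48 hours of galactose induction, yeast (Saccharomyces cerevisiae BJ5465) displaying a synthetic nanobody library were stained at 4 °C for 1 hour with 10% biotinylated, detergent-solubilized Sf9 membrane reagent. Streptavidin microbeads enriched the stained cells before FACS sorting into low and high (top ~1%) gates on anti-HA and streptavidin fluorescence. Each clone's polyreactivity label reflects its gate of origin.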

| Sequence | polyreactivity (PSR sort gate) |
| --- | --- |
| QVQLVESGGGLVQEGGSLRLSCAASGRNFDVNAMGWYRQAPGKERELDAAISSGGNTKYSDSVKGRFTISRDKSKNTVYLQMNSLKPVDSAVYYCKADGKAGGDYDYWVQGTQVTVSS | low polyreactivity |
| QVQLVESGGGLVQEGGSLRLSCAASGRNFGRYAMVRYRQAPGKERELVAAISSSGVATYYADSVKGRFTISRDNAKNTVYLQMNSLKPEDTEVYYCNSLYRVFYGFYYWGQGTQVTVSS | high polyreactivity |
| QVQLVESGGGLVQEGGSLRLSCAASGRTFRINAMGWYRQAPGKERELVAAITSIAGNTYYADSVKGRFTISRDNAKNTVYLQMNSLKPEDTAVYYCAVDSVPWGFRGAYGLTRYYYWGQGTQVTVSS | low polyreactivity |
| QVQLVESGGGLVQEGGSLRLSCAASGSIFSGYAMGWYRQAPGKERELVAGITWSGGSTYYADSVKGRFTISRDNAKNTVYLQMNSLKPEDTSVYYCAAKYYWYYSYSGIPLFDYWGQGTQVTVSS | low polyreactivity |
| QVQLVESGGGLVQEGGSLRLSCAASGSIFYRYTMGWYRPAPGKERELVAAISSRGGSTYYADSVKGRFTISRDNAKNTVYLQMNCLKPEDTAVYYCAARYYRNPVFVIMDYWGQGTQVTVSS | high polyreactivity |
| QVQLVESGGGLVQEGGSLRLSCAASGSIVTLYAMGWSRQAPGKERELVAAITWYGGSTYYADSVKGRFTISRDNAKNTVYLQMNSLKPEDTAVYYCAKDYLAGGPCEGHVEREYDYWGQGTQVTVSS | low polyreactivity |
| QVQLVESGGGLVQEGGSLRLSCAASGSTFHSYAMGWYRQAPGKERELVAGINRTGGSTYYADSVKGRFTISRDNAKNTVYLQMNSLKPEDTAVYYCAAVSYYASDYRYDYWGQGTQVTVSS | low polyreactivity |
| QVQLVESGGGLVQEGGSLRLSCAASGSTFRRYAMGWYRQAPGKERELVASISRSGGSTYYADSVKGRFTISRDNAKNTVYLQMNSLKSEDTAVYYCSKKPYKSAYDYSTAYDYWGQGTLVTVSS | high polyreactivity |
| QVQLVESGGGLVQEGGSLRLSCAASGSTFRTYAMGWYRQAPGKERELVAAISGDTSTNYADSVKGRFTISRDNAKNTVYLQMNSLKPEDTAVYYCAAYWTTYATLWYDYWGQGTQVTVSS | low polyreactivity |
| QVQLVESGGGLVQEGGSLRLSCAASGTIFGIYAMGWYRKAPGKERELVAAISKSGGGTYYADSVKGRFTISRDNSKNTVFLQMNSLKPEDTAVNYCNVYVSKYRRFEYWGQGTQVTVSS | high polyreactivity |
| QVQLVESGGGLVQEGGSLRLSCAASVFIIDYYAMGWYRQAPGKERELVASISYNSVSTTYADSVKGRFTISRDNAKNTVYLQMNSLKPEDTAVYYCAATSWYWAYTYYYWGQGTQVTVSS | low polyreactivity |
| QVQLVESGGGLVQEGGSLRLSCAATGSIFSSYAMGWYRQAPGKERELVASINSAGSTNYADSVKGRFTISRDNAKITVYLQMNSLKPEDTAVYYCARGGAVVYLDYWGQGTQVTVSS | low polyreactivity |
| QVQLVESGGGLVQEGGSLRLSCADSGFIFRRYAMGWYIQAPGKERELVAAIRSDGSTNYADSVKGRFTISRDNAKNTVYLQMNSLKPEDTAVYYCAATYYSYTWFSQYYYWGQGTQVTVSS | high polyreactivity |
| QVQLVESGGGLVQEGGSLRLSCADSGSTFASYAMGWNRQAPGKERELVAAITDSGGSTYYADSVKGRFTISRDNAKNTVYLQMNSLKPEVTAVYDCAAEDQESNAAGGYWGQGTQVTVSS | low polyreactivity |
| QVQLVESGGGLVQEGGSLRLTCAASGSTFSDYAMGWYRQAPGKERELVAAISKRGGRTYYADSVKGRFTISRDNEKNTVYLQMNSLKPEDTAVYDCAADLPNAKWYGYDYWGQGTQVTVSS | high polyreactivity |
| QVQLVESGGGLVQEGGSLRVSCAASGIIFSSYVMGWYRQAPGKERELVAAISKSGARTSYADSVKGRFTISRDNAKNTVYLQMNSLKPEDTAVYYCAATFRLERPTSKHPRYDYWGQGTQVTVST | low polyreactivity |
| QVQLVESGGGLVQEGGSLSLSCAASGSTFTVYNMGWYRKAPGEERELVAANSRRGDSTYYADSVKGRFTISRDNAKNTVYSQMHSLKPEETAVYYSNARSAYGTGNQRGRRYYWGQGTEVTVSS | high polyreactivity |
| QVQLVESGGGLVQERVSLRLSCAASGFIFLFNAMGWNRQAPGKERELVAAISDDGSTYYADSLKGRFTISRDNAKNTVYLQMTSLKTEDTAVYYCAAEYYYDRYTLDYWGQGTQVTVSS | high polyreactivity |
| QVQLVESGGGLVQGGGSLRIICAASGFTFTDYAMGWYRQAPGKERELVAAIDGSGGRTYYAYSVKGRFTISRDNAKNTFYLQMNSLKPEHTAVYYCAAGLYSRLYWYRLDYWGQGTQVTVSS | low polyreactivity |
| QVQLVESGGGLVQGGGSLRLRCAASGFNFDWYTMGWYRQAPGKERELVAAITIGGSTDYADSVKGRFTISRDNAKNTVYLQMNSLKREDTAVYYCNALWYLSGTWYDYWGQGTQVTVSS | low polyreactivity |
| QVQLVESGGGLVQGGGSLRLSCAASGFTFYYNAMGSYRQAPGKERELVADITSGGDTYYADSVKGRFTISRDNAKNTVYLQRNSLKPEDTAVYYCAAELWGLFDYWGQGTEVTVSS | low polyreactivity |
| QVQLVESGGGLVQGGGSLRLSCAASGRIFDRYAMGWYRQAPGKERELVAAISSSGGSTYYADSVKGRFTISRDNAKNTVYLQMNSLKPEDTPVYYCNADYYVSKLDYWGQGTQVTVSS | high polyreactivity |

| Sequence | polyreactivity (PSR sort gate) |
| --- | --- |
| QVQLVESGGGLVQGGGSLRLSCAASGRIFDYYTMGWYRPAPGKERELVAAISSGGSTNYADYVKGRFTISRDNAKNTVYLQMNSLKPEDTAVYYCNVDLTTVGHWYYYRPGYDYWEQGTQVTVSS | low polyreactivity |
| QVQLVESGGGLVQGGGSLRLSCAASGRNWSRYAMGWYRQAPGKERELVADITYSGGNTYYADSVKGRFTISRDNAKNTVYLQMNSLKPEDTAVYYCSTGWSWWTFDYWGQGTQVTVSS | high polyreactivity |
| QVQLVESGGGLVQGGGSLRLSCDASGFIFPAYARGWYRQAPGKEREWVAAISKSGGRTYYADSVKGRFTISRDNAKNPVYLQMNRLKPEDTAVNYCPARLYNYDTSSSFDYWGQGTQVNVSS | high polyreactivity |
| QVQLVESGGGLVQGGGSLRLSFAASGSIFWRNAMGWYRQAPGKERELVAAITSGGSTYYADSVKGRFTISRDNAKNTVYLQMNSLKPEDTAVYYCAAGGRWARWLFPSRYDYWGQGTQVTVSS | low polyreactivity |
| QVQLVESGGGLVQGGGSLSLSCAASGITFLNYAMGWYRQAPGKERELVAAITWRGGRTYYADSVKGRFTISRDNEKNTVYLQMNSLKPEDTAVYYCARRPGYALTWRVSGRYDYWGQGTQVTVSS | high polyreactivity |
| QVQLVESGGGLVQGGSLRLSCAATGFTFPIYVMAWYRQAPGKERQLVDSISSVGSTNYADSVKGRFTISRDNAKNTVYLQMNSMKPEDTAVYYCNADAPNSYGGFDYWGQGTQVTVSS | low polyreactivity |
| QVQLVESGGGLVQGVGTLRLSCAASGITFVYYAMGWSRHAPVKERELFAAISSGGSSTYYADSVKGRFTMSRDTAKNTVYLQMHSQKPEDTAVYYCAATNYFPRLQWMDYWGQGTQVTVSS | low polyreactivity |
| QVQLVESGGGLVQPGCSLRLSCAASGSIFYAYDMGWYRQSPGKERQLVAAISWSGGTTYYADSVKGRFTISRDNAKNTVYLQMNSLIPEDTAVYYCAAREYYTDVHGTRRYDYWGQGTQVTVSS | low polyreactivity |
| QVQLVESGGGLVQPGGSLRLSCAASGFIFTLYAMGWYRQAPGKEREFFAAISWSDGSTTYADSVKGRFTISRDNAKNTVYLQMNSLKREDTAVYYCAAVTSSYIRGLVYHFYYWGQGTLVTVSS | low polyreactivity |
| QVQLVESGGGLVQPGGSLRLSCAASGFIYSYYAMGLYRPAPGKERELVAVITRSVGSTYYADSVKGRFTISRDNAKNTVYLQMNSLKPEYTAVYYCAAGYFYHFSRYTNRYGYWGQGTQVTVSS | high polyreactivity |
| QVQLVESGGGLVQPGGSLRLSCAASGRIFGRYAMGWYRQAPGKERELVAAISRGGTTNYADSVKGRFTISRDNAKNTVYLQMNSLKPEDTAVYYCAKSGPKRGQYDYWGQGTLVTVSS | high polyreactivity |
| QVQLVESGGGLVQPGGSLRLSCAASGSIFGSYDMGWYRQAPGKERELVAAITYSVGTTYYADSVKGRFTISRDNAKNTVYLQMNSLKPEDNAVYYCAADFAPVGLPSPFAVSEGEDDYWGQGTQVTVSS | low polyreactivity |
| QVQLVESGGGLVQPGGSLRLSCAASGSIFYRNAMGWYRQAPGKERELVAAITWSGVNTYYADSVKGRFTISRDNAKNTVYLQMNSLKPEDTAVYYCAVPSRYWLNRGFDYWGQGTQVTVSS | low polyreactivity |
| QVQLVESGGGLVQPGGSLRLSCAAYGLTFYGYTMGWYRQAPGKERELVASITRSGGSTYADSVKGRFTISRDNAKNTVYLQMNSLKPEDTAVFYCAAVYRARGYYYWGQGTQVTVSS | high polyreactivity |
| QVQLVESGGGLVQQGGILRLSCASSGSNFILNEMGWSRQAPRKDRELVATISSSDTSTYYADSVKGRFTISRDNAKNTVYVQMNSLKPEDTAVYYCNADYYTTSYLQRVYHYGVEYDYWGQGTQVTVSS | low polyreactivity |
| QVQLVESGGGLVQSGGSLRLICAASGRIFPYYAMGWYRQAPGKERELVATIRGRVGTTYYADSVKGRFTISRDNAKNTVYLQMTSLKPEDTAVYYCAKREYSRYTRVFGYGSWGQCTQVTVSS | high polyreactivity |
| QVQLVESGGGLVQSGGSLRLICAASGSTFGRYPMGWYRQAPGKERELVARISSGGSTTYADSVKGRFTISRDNAKNTVYFLRNSLKTEETAVYYSAADTPYWRYDYWGQGTQVTVSS | high polyreactivity |
| QVQLVESGGGLVQSGGSLRLSCAASGGTFRYNAMGRYRQAPGKERELVAAITSVGITNYADSVKGRFTISRDNAKNTVYLQMNSLNPEDTAVYYCAKRYYRYGARSWYYPYDYWGQGTQVTVSS | high polyreactivity |
| QVQLVESGGGLVQSGGSLRLSCAASGITLYWYAMGWYRQAPGKERELVAAITFNGGSTYADSVKGRFTISRDNAKNTVYLQMNSLKPEDTAVYYFASGDGPSLFDYWGQGTQVTVSS | low polyreactivity |
| QVQLVESGGGLVQSGGSLRLSCAASGRIFDWNVMGSYRQAPGKERELVSVINDSTGTTYYADSVKGRFTISRDNAKNTVYLQMNSLKPEDTAVYYCAAYVWISSEEFYYWGQGTQVTVSS | low polyreactivity |
| QVQLVESGGGLVQSGGSLRLSCAASGRIFFYYAMGGYRQAPGKERELVATIRDGGGTTYYADSVKRRFTISIDNAKNTVYLQMNSLKTDDTAFYYCNVDVWRKYYYWGQGTQVTVSS | low polyreactivity |
